Measurements from patent publication US20140072613A1, “Compositions and Methods for Treating Cutaneous Scarring” (priority 2012, published 2014).

Tests used:
Assay in all cases: cell-based or functional assay
BrSK2(h) (human) = molecular target: T1, BrSK2(h) (human) (UniProt Q8IWQ3)
T1 sequence (looked up): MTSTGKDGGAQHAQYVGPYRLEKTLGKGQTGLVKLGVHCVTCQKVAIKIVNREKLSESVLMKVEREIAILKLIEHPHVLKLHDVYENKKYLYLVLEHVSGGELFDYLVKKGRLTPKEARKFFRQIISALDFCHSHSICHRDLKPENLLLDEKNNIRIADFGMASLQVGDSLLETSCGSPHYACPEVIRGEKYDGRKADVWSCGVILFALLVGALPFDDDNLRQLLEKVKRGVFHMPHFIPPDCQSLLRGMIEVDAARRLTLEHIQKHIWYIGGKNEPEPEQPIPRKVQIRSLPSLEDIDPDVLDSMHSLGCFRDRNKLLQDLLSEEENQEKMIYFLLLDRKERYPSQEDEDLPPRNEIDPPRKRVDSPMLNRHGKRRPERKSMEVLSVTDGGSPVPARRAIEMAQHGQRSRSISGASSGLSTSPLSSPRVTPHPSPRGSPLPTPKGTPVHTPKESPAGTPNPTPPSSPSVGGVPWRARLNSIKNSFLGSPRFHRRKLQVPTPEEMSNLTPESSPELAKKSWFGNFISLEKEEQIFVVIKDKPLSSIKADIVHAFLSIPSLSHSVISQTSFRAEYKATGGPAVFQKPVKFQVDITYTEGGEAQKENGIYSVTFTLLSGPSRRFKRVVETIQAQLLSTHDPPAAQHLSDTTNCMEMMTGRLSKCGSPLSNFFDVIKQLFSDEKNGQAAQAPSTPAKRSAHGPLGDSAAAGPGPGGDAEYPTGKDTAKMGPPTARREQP

CDK2/cyclinA(h) (human) = CDK2/cyclinA(h) (human) (UniProt P24941)
CaMKIIγ(h) (human) = CaMKIIγ(h) (human) (UniProt Q13555)
Abl(T315I)(h) (human) = Abl(T315I)(h) (human) (UniProt P00519)
MSK2(h) (human) = MSK2(h) (human) (UniProt O75676)
GSK3α(h) (human) = GSK3α(h) (human) (UniProt P49840)
EGFR(L861Q)(h) (human) = EGFR(L861Q)(h) (human) (UniProt P00533)
GCK(h) (human) = molecular target: T2, GCK(h) (human) (UniProt Q12851)
T2 sequence (looked up): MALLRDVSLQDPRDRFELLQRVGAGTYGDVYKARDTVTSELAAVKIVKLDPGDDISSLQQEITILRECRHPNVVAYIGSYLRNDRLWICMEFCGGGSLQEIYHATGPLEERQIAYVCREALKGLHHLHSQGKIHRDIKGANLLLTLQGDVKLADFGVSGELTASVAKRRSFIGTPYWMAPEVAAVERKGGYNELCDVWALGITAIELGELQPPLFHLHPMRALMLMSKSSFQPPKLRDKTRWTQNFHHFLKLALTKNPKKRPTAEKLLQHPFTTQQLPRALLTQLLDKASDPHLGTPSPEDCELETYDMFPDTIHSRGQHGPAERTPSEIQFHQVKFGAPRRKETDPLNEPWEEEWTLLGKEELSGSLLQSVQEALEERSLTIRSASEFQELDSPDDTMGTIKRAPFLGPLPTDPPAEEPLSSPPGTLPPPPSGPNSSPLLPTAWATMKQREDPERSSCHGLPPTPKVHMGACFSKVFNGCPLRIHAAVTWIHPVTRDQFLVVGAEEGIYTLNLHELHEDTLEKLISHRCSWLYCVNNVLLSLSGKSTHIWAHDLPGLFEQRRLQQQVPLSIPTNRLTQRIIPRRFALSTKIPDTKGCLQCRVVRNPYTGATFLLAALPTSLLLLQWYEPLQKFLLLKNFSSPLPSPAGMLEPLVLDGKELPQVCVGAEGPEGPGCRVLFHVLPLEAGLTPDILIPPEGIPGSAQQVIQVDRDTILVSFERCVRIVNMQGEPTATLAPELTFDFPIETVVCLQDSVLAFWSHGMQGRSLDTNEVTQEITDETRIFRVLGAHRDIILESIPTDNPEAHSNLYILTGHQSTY

DCAMKL2(h) (human) = molecular target: T3, DCAMKL2(h) (human) (UniProt Q8N568)
T3 sequence (looked up): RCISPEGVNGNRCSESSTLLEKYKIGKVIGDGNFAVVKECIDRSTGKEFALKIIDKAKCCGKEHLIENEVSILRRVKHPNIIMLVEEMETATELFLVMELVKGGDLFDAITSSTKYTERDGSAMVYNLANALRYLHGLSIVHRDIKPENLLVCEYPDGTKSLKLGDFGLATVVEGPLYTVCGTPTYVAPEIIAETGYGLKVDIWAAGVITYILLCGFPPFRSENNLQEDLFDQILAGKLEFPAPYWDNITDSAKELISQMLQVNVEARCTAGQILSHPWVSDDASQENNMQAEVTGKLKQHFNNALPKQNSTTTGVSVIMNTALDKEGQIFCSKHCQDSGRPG

JNK3(h) (human) = JNK3(h) (human) (UniProt P53779)
PhKγ2(h) (human) = molecular target: T4, PhKγ2(h) (human) (UniProt P15735)
T4 sequence (looked up): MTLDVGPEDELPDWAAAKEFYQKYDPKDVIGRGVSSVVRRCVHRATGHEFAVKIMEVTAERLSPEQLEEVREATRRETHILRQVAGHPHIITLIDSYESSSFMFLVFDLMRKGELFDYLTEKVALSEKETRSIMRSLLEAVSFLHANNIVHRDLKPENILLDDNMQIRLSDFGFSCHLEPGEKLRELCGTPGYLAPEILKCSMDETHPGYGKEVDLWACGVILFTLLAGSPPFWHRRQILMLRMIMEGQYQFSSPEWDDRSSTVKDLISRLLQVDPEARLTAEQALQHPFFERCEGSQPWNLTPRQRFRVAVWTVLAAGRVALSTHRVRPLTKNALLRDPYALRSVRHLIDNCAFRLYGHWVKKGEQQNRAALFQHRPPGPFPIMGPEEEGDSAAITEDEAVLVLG

Sequence of CaMKIIγ(h) (human) (Q13555 whole entry): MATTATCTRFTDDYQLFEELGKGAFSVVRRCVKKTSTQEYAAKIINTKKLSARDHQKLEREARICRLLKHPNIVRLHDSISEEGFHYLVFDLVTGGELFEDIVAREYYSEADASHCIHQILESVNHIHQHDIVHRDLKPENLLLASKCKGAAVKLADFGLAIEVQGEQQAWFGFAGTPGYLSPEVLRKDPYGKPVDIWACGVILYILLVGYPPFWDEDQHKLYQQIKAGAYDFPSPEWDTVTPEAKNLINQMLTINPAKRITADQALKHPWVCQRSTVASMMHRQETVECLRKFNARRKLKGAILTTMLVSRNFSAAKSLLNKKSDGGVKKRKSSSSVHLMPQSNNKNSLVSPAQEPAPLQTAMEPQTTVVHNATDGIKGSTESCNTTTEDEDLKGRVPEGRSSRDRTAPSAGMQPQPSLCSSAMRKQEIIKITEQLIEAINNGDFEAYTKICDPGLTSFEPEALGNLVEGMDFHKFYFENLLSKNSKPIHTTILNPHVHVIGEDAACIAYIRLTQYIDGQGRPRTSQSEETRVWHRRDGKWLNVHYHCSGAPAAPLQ
Sequence of MSK2(h) (human) (O75676 whole entry): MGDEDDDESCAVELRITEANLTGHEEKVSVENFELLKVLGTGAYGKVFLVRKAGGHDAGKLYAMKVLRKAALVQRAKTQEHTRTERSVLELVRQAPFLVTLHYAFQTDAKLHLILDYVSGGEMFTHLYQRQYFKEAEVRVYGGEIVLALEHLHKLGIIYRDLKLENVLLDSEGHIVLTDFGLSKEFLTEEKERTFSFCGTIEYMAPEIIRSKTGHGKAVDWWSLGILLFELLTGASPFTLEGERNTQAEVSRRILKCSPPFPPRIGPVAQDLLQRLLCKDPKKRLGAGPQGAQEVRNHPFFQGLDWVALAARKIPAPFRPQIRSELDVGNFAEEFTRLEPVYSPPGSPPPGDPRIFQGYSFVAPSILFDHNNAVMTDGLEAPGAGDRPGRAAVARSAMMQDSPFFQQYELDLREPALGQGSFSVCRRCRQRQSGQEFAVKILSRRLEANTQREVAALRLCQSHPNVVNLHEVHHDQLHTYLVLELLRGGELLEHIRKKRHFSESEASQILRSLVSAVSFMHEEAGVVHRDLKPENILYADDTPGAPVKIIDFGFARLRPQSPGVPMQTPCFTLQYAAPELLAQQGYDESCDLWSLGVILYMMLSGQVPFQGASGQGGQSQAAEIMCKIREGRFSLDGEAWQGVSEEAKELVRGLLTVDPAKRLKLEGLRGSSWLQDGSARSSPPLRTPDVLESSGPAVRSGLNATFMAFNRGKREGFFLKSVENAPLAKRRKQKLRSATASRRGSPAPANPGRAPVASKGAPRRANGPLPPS
Sequence of GSK3α(h) (human) (P49840 whole entry): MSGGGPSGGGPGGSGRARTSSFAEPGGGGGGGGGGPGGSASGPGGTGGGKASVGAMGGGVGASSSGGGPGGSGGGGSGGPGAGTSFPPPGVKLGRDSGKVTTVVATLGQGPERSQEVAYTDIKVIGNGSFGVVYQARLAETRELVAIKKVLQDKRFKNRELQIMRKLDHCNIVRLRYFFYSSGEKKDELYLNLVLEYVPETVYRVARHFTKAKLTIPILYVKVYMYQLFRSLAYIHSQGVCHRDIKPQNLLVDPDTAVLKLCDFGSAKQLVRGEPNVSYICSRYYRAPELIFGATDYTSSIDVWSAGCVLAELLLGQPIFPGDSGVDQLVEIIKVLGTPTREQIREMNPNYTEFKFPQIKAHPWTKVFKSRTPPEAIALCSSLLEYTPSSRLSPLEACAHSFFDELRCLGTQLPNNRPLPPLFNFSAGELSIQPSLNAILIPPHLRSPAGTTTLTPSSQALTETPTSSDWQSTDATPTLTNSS
Sequence of JNK3(h) (human) (P53779 whole entry): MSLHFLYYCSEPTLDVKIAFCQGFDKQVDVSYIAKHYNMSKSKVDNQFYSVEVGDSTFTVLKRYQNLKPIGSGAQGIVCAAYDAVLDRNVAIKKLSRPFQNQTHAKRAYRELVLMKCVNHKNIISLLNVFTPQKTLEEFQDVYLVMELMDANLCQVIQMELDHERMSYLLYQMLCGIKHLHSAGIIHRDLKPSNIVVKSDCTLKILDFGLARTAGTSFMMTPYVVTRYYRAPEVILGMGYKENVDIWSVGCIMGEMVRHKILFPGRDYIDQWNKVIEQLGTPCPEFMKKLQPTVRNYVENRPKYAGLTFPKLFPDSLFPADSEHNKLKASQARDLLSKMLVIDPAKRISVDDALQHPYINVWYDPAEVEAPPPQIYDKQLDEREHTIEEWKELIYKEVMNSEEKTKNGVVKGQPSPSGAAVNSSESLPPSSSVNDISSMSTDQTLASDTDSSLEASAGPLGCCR
Sequence of Abl(T315I)(h) (human) (P00519 27-1130 T315I limits assumed): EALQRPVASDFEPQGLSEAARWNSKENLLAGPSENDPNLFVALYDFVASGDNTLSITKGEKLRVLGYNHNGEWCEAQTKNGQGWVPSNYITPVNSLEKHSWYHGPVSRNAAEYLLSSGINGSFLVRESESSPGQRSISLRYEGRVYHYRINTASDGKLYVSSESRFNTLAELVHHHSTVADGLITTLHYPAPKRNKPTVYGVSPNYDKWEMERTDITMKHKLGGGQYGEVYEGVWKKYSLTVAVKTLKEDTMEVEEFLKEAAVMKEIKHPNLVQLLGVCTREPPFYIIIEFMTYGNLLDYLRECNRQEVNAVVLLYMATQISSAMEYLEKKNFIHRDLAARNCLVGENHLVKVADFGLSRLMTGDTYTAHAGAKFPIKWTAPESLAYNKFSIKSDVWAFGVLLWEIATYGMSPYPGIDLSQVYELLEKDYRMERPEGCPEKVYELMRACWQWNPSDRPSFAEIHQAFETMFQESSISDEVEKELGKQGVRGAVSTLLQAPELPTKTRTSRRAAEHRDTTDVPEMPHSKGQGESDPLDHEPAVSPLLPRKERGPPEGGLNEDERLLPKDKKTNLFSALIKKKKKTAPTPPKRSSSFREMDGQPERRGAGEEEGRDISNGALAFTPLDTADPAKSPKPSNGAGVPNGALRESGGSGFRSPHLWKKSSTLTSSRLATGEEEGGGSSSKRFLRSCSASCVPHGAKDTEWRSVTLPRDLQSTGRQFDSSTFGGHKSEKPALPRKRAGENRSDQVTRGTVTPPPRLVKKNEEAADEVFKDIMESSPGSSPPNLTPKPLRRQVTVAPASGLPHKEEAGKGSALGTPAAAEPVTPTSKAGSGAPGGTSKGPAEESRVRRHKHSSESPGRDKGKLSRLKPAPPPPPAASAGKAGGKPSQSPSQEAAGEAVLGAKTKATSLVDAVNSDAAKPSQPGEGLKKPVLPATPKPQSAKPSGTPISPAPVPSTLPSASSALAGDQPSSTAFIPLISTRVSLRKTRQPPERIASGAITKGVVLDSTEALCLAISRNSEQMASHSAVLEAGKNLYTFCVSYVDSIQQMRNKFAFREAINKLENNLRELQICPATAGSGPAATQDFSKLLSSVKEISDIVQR

- % activity, 100 µM (BrSK2(h) (human)): 84%
- % activity, 100 µM (CDK2/cyclinA(h) (human)): 87%
- % activity, 100 µM (CaMKIIγ(h) (human)): 3%
- % activity, 100 µM (Abl(T315I)(h) (human)): 16%
- % activity, 100 µM (MSK2(h) (human)): 14%
- % activity, 100 µM (GSK3α(h) (human)): 175%
- % activity, 100 µM (EGFR(L861Q)(h) (human)): 15%
- % activity, 100 µM (GCK(h) (human)): 30%
- % activity, 100 µM (DCAMKL2(h) (human)): 56%
- % activity, 100 µM (JNK3(h) (human)): 171%
- % activity, 100 µM (PhKγ2(h) (human)): 16%
Substance: MMI-0500 (peptide)
